FireProtDB (doi:10.1110/ps.8.7.1530)

Conditions: Escherichia coli (strain K12); pH 7.4; 22 °C; GdnHCl; Fluorescence; Sodium phosphate 20 mM; reversible: yes; whole UniProt chain shown

B1: PTS system mannose-specific EIIAB component wild type, P69797 (protein)
chain: MTIAIVIGTHGWAAEQLLKTAEMLLGEQENVGWIDFVPGENAETLIEKYNAQLAKLDTTKGVLFLVDTWGGSPFNAASRIVVDKEHYEVIAGVNIPMLVETLMARDDDPSFDELVALAVETGREGVKALKAKPVEKAAPAPAAAAPKAAPTPAKPMGPNDYMVIGLARIDDRLIHGQVATRWTKETNVSRIIVVSDEVAADTVRKTLLTQVAPPGVTAHVVDVAKMIRVYNNPKYAGERVMLLFTNPTDVERLVEGGVKITSVNVGGMAFRQGKTQVNNAVSVDEKDIEAFKKLNARGIELEVRKVSTDPKLKMMDLISKIDK
  denaturant midpoint (higher = more stable): 2.3 M
  unfolding free energy: 10.5 kcal/mol
